One block for each binder: values may come before it.
Assays:
[1] = target: human c-Met on cells (MKN-45, A549, HPAF, BxPC3, NCI-H441) (human, UniProt P08581 25-1390); assay: cell-based or functional assay
[2] = target: Ll10 (aa608-909) (human; Llama glama); assay: ELISA, mAb immobilised, c-Met chimera titrated (EC50 of the chimera)
[3] = target: Ll8 (aa540-909) (human; Llama glama); assay: as above
[4] = target: Ll11 (aa634-909) (human; Llama glama); assay: as above
[5] = target: Ll9 (aa572-909) (human; Llama glama); assay: as above
[6] = target: LP7* (aa523-909) (human; Llama glama); assay: as above
[7] = target: LP6 (aa497-909) (human; Llama glama); assay: as above
LS1 (aa1-98) = target: T1, LS1 (aa1-98) (Llama glama; human, UniProt P08581 25-932); assay: as above
T1 construct: Ranges count on mature human c-Met
T1 chain: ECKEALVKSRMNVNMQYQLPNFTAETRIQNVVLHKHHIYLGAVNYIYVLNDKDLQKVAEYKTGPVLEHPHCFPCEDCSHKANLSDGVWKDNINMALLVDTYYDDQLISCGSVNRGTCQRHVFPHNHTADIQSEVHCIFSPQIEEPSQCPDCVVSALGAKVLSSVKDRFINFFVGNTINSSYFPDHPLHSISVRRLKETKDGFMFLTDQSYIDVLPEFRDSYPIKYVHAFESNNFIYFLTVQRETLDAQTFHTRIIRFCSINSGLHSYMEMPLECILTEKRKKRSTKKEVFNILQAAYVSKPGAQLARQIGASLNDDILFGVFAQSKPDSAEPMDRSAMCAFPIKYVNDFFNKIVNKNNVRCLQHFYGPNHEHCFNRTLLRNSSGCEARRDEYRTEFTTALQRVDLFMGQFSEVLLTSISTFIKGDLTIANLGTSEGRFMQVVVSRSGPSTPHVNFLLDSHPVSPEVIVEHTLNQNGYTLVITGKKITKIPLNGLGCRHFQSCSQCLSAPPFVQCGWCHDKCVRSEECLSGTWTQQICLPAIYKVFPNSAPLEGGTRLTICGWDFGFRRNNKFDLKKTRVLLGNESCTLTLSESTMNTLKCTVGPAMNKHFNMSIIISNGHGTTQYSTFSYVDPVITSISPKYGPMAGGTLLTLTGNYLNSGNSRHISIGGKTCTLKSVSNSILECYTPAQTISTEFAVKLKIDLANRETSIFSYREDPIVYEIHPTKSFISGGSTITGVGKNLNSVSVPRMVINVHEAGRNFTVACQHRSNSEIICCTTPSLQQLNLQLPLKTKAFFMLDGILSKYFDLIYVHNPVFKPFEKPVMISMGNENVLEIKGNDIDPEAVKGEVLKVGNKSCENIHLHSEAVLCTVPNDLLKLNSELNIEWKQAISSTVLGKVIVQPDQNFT
Description: An ELISA was run to investigate the binding of the mAbs to the different chimeras.

[8] = target: T2, llama c-Met ECD (aa 25-932), His tag (Llama glama); assay: ELISA, 200 ng immobilised c-Met protein
T2 construct: also called Llama glama c-Met
T2 chain: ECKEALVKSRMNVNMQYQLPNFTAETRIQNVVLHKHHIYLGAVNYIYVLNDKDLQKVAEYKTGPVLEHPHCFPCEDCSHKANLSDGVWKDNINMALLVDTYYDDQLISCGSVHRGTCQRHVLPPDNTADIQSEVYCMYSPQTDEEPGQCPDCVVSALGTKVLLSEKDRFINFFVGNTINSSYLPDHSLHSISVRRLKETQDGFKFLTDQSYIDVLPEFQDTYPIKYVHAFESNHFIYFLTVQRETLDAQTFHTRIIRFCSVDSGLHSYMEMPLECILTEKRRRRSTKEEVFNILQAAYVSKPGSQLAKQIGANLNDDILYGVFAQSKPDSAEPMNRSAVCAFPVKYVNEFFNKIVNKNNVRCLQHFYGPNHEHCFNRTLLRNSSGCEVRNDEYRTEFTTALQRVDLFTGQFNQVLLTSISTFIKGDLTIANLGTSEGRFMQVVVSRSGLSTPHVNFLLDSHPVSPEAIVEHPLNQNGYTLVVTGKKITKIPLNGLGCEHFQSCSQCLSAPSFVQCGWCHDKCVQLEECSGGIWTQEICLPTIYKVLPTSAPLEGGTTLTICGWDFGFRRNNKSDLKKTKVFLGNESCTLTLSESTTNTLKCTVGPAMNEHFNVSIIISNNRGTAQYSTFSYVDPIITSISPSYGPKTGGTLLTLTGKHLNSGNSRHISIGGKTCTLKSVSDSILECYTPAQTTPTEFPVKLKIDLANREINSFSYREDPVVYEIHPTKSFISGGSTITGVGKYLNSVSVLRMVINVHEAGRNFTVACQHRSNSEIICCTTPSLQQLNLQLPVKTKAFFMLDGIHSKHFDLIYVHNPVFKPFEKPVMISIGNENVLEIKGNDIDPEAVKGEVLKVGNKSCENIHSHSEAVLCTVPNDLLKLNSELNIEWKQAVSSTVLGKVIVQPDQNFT

[9] = target: T3, human/llama-IPT chimeric c-Met ECD (human; Llama glama, UniProt P08581 25-932); assay: ELISA, 200 ng immobilised c-Met protein, mAb titrated
T3 construct: ranges stand under form; also called human/llama IPT1-4; construct with the human SEMA-PSI
T3 chain: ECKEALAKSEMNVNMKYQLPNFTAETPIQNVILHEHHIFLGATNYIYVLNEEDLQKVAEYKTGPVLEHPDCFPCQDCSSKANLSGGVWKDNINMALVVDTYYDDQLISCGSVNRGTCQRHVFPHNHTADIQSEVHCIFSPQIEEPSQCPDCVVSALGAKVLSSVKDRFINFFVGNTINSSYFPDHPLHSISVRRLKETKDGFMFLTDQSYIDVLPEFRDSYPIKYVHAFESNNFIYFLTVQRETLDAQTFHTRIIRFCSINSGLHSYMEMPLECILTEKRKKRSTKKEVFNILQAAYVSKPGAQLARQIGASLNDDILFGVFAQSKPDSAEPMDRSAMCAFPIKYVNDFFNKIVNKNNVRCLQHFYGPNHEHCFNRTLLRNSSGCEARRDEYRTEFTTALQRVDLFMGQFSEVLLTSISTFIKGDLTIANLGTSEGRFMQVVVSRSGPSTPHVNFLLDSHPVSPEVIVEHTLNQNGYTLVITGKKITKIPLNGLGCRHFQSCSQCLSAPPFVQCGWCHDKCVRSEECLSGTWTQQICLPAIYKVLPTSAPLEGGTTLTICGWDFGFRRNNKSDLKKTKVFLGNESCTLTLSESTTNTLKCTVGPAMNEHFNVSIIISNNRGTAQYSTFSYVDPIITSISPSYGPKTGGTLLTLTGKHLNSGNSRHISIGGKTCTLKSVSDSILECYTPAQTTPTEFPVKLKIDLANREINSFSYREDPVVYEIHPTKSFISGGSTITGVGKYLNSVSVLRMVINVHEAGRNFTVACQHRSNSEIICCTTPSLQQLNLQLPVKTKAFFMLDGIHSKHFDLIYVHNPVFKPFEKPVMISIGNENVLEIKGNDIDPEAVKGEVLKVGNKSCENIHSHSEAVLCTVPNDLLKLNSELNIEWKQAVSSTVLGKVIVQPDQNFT

[10] = target: LS3 (aa1-287) (Llama glama; human) (UniProt P08581); assay: ELISA, mAb immobilised, c-Met chimera titrated (EC50 of the chimera)
[11] = target: LS2 (aa1-199) (Llama glama; human) (UniProt P08581); assay: as above
[12] = target: LS5 (aa1-448) (Llama glama; human) (UniProt P08581); assay: as above
[13] = target: LS4 (aa1-348) (Llama glama; human) (UniProt P08581); assay: as above

B1: 36C4 (antibody, V domains shown)
VH: QVQLVESGPGLVKPSQTLSLTCAVSGGSITTNYYYWSWIRQSPGKGLEWMGVIAYDGSTDYSPSLKSRTSISRDTSKNQFSLQLSSVTPEDTAVYYCARDVRVIATGWATANALDAWGQGTLVTVSS
VL: QSVLTQPPSVSGSPGKTVTISCAGTSSDVGYGNYVSWYQQLPGTAPKLLIFAVSYRASGIPDRFSGSKSGNTAFLTISGLQSEDEADYYCASYRSSNNAAVFGGGTHLTVL
notes: also called mAb 36C4; SIMPLE antibody 36C4
ADCC, specific lysis of MKN-45 cells, EC50 [1]: 0.005 µg/mL
antibody-induced proliferation of BxPC3 cells, percentage of the proliferation obtained with 75 ng/ml HGF [1]: < 20%
EC50 [2]: 0.047 µg/mL
EC50 [3]: 0.047 µg/mL
EC50 [4]: 0.045 µg/mL
EC50 [5]: 0.047 µg/mL
EC50 [6]: 0.055 µg/mL
EC50 [7]: 0.05 µg/mL
EC50 (LS1 (aa1-98)): 0.068 µg/mL
binding result [8]: no binding
binding result [9]: binds

B3: 36C4E (antibody, V domains shown)
VH: B1 VH
VL: B1 VL
ADCC, 51Cr release assay on NCI-H441 cells, EC50 [1]: 0.26 µg/mL

B5: 40B8 (antibody, V domains shown)
VH: EVQLVQPGAELRNPGASVKVSCKASGYTFTNYVIDWVRQAPGQGLEWMGRIDPENGGTRYAQKFQGRVTFTADTSTSTAYVELSNLRSEDTAVYYCARLEDYELAYDYWGQGTQVTVSS
VL: DIVMTQTPSSVTASAGEKVTINCKSSQSVLLSSNQKNYLAWYQQRLGQSPRLLIYWASTRESGVPDRFSGSGSTTDFTLTISSFQPEDAAVYYCQQGVSFPLTFGQGTKVELK
ADCC, specific lysis of MKN-45 cells, EC50 [1]: 0.0046 µg/mL
antibody-induced proliferation of BxPC3 cells, percentage of the proliferation obtained with 75 ng/ml HGF [1]: < 20%

B6: 38H10 (antibody, V domains shown)
VH: EVQLVQPGVELRNPGASVKVSCKASGYIFTMNSIDWVRQAPGQGLEWMGRIDPEDGGTKYAQKFQGRVTFTADTSTSTAYVELNSLRSEDTAVYYCARVDDYYLGYDYWGQGTQVTVSS
VL: EIVMTQSPSSVTASAGEKVTINCKSSQSVLWRSNQKNYLAWYQQRLGQSPRLLISWASIRESGVPDRFSGSGSTTDFTLTISSFQPEDAAVYYCQQGYSFPYTFGSGTRLEIK
antibody-induced proliferation of BxPC3 cells, percentage of the proliferation obtained with 75 ng/ml HGF [1]: < 20%

The next lines start with the values.

ADCC, 51Cr release assay on NCI-H441 cells, EC50 [1]: 0.04 µg/mL
ADCC, 51Cr release, lysis of NCI-H441 cells, IC50 [1]: 0.00013 µg/mL
B2: Potelligent 36C4 (antibody, V domains shown)
VH: B1 VH
VL: B1 VL
modifications: defucosylated (produced in Potelligent CHO cells)

binding result [8]: no binding
B4: 13E6 (antibody, V domains shown)
VH: QVQLQESGGDLVQPGGSLRLSCAASGFTFDDYVMNWVRQAPGKGLEWISAINWNGGSTYYAESMKGRFTISRDNAKNTLYLQMYSLQSDDTAVYYCVKDTVVSGNGYWGQGTQVTVSS
VL: QSVLTQPPSVSGTLGKTVTISCAGTSSDIGDYNYVSWYQQLPGTAPKLLIYDVNKRASGIPDRFSGSKSGNTASLSISGLQSEDEADYYCASYRSRNDYAFGGGTKLTVL
notes: also called mAb 13E6

ADCC, specific lysis of MKN-45 cells, EC50 [1]: 0.0043 µg/mL
EC50 [2]: > 0.04 µg/mL
EC50 [10]: 0.05 µg/mL
EC50 [11]: 0.034 µg/mL
EC50 [3]: > 0.04 µg/mL
EC50 [4]: 0.042 µg/mL
EC50 [12]: 0.05 µg/mL
EC50 [13]: 0.07 µg/mL
EC50 [5]: > 0.04 µg/mL
B7: 48A2 (antibody, V domains shown)
VH: B6 VH
VL: DIVMTQTPTSVTASAGDKVTINCKSSQSVLFSSNQKNYLAWYQQRLGQSPRLLIYWASIRESGVPDRFSGSGSATDFTLTISNFQPEDAAVYYCQQGYSFPYSFGSGTRLEIR

ADCC, specific lysis of MKN-45 cells, EC50 [1]: 0.0028 µg/mL
B8: chimeric 224G11 (antibody, human IgG1, V domains shown)
VH: EVQLQQSGPELVKPGASVKISCKTSGYIFTAYTMHWVRQSLGESLDWIGGIKPNNGLANYNQKFKGKATLTVDKSSSTAYMDLRSLTSEDSAVYYCARSEITTEFDYWGQGTALTVSS
VL: DIVLTQSPASLAVSLGQRATISCRASESVDSYANSFMHWYQQKPGQPPKLLIYRASNLESGIPARFSGSGSRTDFTLTINPVEADDVATYYCQQSKEDPLTFGSGTKLEMK

Reference: patent publication US20180215833A1 (published 2018)
